In patent US20230277633:

B1: protease IdeE (protein)
chain: DDYQRNATEAYAKEVPHQITSVWTKGVTPLTPEQFRYNNEDVIHAPYLAHQGWYDITKAFDGKDNLLCGAATAGNMLHWWFDQNKTEIEAYLSKHPEKQKIIFNNQELFDLKAAIDTKDSQTNSQLFNYFRDKAFPNLSARQLGVMPDLVLDMFINGYYLNVFKTQSTDVNRPYQDKDKRGGIFDAVFTRGDQTTLLTARHDLKNKGLNDISTIIKQELTEGRALALSHTYANVSISHVINLWGADFNAEGNLEAIYVTDSDANASIGMKKYFVGINAHRHVAISAKKIEGENIGAQVLGLFTLSSGKDIWQKLSHHHHHH
B2: protease IdeS (protein)
chain: DSFSANQEIRYSEVTPYHVTSVWTKGVTPPANFTQGEDVFHAPYVANQGWYDITKTFNGKDDLLCGAATAGNMLHWWFDQNKDQIKRYLEEHPEKQKINFNGEQMFDVKEAIDTKNHQLDSKLFEYFKEKAFPYLSTKHLGVFPDHVIDMFINGYRLSLTNHGPTPVKEGSKDPRGGIFDAVFTRGDQSKLLTSRHDFKEKNLKEISDLIKKELTEGKALGLSHTYANVRINHVINLWGADFDSNGNLKAIYVTDSDSNASIGMKKYFVGVNSAGKVAISAKEIKEDNIGAQVLGLFTLSTGQDSWNQTNHHHHHHSSG

Legend:
[1] = system: human IVIg (an intravenous human immunoglobulin)
[2] = molecular target: human IVIg (an intravenous human immunoglobulin); remark: listed apart in the source

Row | Molecule | enzymatic digestion of human IVIg in vitro, SDS-PAGE (10 ug IVIg per 1 Unit IdeZ, 37 C, 1 h) [1] | enzymatic digestion of human IVIg in vitro, SDS-PAGE (enzyme:IVIg 1:200 by mass, 37 C, 1 h) [2]
1 | protease IdeZ (Genovis) | all the three proteases can effectively cleave human IVIg | –
2 | B1 | – | all the three proteases can effectively cleave human IVIg
3 | B2 | – | all the three proteases can effectively cleave human IVIg
